The values below come from paper PMC6239180.

Data set [1] deals with T1, hPcf11 (CF II subunit);hClp1 (CF II subunit or alone) (human;human, UniProt O94913;Q92989 1-1555;1-425, |). As to the kind of experiment: EMSA. For orientation: A gel shift assay detects complexes by their altered migration in electrophoresis.
Data set [2] addresses T1, hPcf11 (CF II subunit);hClp1 (CF II …). As to the kind of experiment: UV cross-linking and immunoprecipitation.

T1 sequence (O94913 whole entry, chain 1 of 2): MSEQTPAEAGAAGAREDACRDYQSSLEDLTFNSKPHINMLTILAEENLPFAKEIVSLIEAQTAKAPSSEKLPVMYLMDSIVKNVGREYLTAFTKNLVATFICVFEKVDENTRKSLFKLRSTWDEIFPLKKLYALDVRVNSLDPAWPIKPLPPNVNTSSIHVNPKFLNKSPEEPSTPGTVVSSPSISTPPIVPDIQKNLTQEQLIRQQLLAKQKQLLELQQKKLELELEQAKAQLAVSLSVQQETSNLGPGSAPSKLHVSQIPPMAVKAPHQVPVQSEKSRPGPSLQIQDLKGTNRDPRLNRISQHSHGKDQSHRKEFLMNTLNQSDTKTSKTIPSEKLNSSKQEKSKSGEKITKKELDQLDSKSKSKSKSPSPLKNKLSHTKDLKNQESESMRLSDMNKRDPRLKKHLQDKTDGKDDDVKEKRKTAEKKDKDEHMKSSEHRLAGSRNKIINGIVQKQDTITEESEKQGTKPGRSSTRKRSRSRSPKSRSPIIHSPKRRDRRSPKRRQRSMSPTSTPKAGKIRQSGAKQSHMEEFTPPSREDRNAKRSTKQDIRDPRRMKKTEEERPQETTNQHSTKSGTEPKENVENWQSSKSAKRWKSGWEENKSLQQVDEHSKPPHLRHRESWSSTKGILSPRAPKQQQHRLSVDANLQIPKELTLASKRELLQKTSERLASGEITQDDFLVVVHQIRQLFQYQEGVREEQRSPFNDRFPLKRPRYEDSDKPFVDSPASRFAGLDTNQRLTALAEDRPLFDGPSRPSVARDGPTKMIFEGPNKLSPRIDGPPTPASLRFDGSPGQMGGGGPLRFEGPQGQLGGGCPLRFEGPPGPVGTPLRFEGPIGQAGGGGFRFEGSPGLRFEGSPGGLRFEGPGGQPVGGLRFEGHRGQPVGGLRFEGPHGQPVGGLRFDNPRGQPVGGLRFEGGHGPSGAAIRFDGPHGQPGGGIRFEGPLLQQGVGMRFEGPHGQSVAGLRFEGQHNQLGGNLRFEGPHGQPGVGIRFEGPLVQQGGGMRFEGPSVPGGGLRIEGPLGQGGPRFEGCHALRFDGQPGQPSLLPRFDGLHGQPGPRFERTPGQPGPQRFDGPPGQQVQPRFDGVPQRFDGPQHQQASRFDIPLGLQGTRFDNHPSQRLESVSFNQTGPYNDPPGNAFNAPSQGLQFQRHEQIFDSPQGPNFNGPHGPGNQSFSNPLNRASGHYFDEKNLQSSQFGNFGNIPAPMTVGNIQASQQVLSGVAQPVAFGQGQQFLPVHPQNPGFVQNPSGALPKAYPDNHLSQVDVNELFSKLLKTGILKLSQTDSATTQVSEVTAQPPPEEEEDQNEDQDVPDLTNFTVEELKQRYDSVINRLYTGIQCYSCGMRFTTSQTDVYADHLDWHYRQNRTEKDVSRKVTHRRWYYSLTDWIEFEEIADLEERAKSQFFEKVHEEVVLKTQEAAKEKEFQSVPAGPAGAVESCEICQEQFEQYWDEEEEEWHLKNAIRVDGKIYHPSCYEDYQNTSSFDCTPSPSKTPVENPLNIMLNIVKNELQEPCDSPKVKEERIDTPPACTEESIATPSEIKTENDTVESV
T1 sequence (Q92989 whole entry, chain 2 of 2): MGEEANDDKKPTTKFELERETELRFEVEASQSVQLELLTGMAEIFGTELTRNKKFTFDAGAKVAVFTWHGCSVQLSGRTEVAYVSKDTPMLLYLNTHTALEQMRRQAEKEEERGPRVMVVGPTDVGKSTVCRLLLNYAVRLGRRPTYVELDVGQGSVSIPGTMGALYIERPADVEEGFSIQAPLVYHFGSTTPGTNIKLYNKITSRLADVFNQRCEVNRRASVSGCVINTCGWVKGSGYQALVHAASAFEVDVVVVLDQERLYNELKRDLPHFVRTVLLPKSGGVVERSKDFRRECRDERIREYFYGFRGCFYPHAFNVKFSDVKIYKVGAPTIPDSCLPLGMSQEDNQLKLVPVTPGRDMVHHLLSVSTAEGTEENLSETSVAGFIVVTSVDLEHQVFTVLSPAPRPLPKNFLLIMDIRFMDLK

As a reminder, the Kd is the concentration at which binding is half-saturated. A high value points to lower affinity. Regarding GGGGGGGGGGGGGG (ssRNA) [G14], the Kd in data set [1] was roughly 2 nM.

As for UUUUUUUUUUUUUU (ssRNA) [U14], the binding result in data set [2] is given as “binds”.
